Laboratory results from patent publication US20170349905A1.

Assays:
[1] = biological target: second domain of Cas9 protein (half domain comprising the C-terminus, beginning with the QG amino acids of the SGQG linker; NLS and HA tag at its C-terminus) (UniProt Q99ZW2); experiment: cell-based or functional assay
[2] = biological target: second domain of Cas9 protein delivered by adeno-associated virus vector (splicing acceptor linked t (UniProt Q99ZW2)); experiment: cell-based or functional assay
Sequence of second domain of Cas9 protein delivered by adeno-associated virus vector (splicing acceptor linked t (Q99ZW2 716-1368 limits assumed): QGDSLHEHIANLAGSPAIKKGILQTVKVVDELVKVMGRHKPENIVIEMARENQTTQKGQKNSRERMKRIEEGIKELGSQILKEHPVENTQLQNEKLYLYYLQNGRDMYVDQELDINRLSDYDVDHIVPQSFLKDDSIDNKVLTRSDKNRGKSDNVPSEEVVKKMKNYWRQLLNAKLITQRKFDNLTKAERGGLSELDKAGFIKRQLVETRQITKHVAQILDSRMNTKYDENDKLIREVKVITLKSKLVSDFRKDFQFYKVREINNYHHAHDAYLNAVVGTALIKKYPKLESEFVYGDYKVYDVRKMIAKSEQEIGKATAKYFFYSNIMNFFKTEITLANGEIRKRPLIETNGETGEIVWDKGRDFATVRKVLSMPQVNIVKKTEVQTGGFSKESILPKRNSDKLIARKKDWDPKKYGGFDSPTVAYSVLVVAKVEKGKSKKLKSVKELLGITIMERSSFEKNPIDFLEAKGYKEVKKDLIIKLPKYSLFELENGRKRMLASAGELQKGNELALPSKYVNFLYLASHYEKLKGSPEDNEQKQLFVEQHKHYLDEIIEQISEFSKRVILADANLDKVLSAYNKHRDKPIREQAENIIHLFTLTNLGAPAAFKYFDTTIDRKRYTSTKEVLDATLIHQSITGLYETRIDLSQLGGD

Sequence of second domain of Cas9 protein (half domain comprising the C-terminus, beginning with the QG amino acids of the SGQG linker; NLS and HA tag at its C-terminus) (Q99ZW2 716-1368): as the sequence (Q99ZW2 716-1368 limits assumed) above

Row | Substance | Indel frequency in the CCR5 gene (next-generation sequencing) [1] | Indel frequency in the DMD gene (next-generation sequencing) [1] | Indel frequency in the HPRT gene (next-generation sequencing) [1] | target sequence cleavage rate (DMD exon 51) in Hela cells co-infected with AAV, next-generation sequencing [2]
1 | first domain of Cas9 protein (half domain comprising the N-terminus, ending in the SG amino acids of the SGQG linker; HA tag and NLS at its N-terminus) (from UniProt Q99ZW2 1-715) (enzyme) | 20.3% | 23.8% | 27.1% | –
2 | first domain of Cas9 protein delivered by adeno-associated virus vector (splicing donor linked to the C-terminal region) (from UniProt Q99ZW2 1-715) (enzyme) | – | – | – | 5%
